Target: T1, Recombinant soluble integrin αvβ3 (UniProt P06756 31-992; P05106 27-718)
T1 construct: Soluble heterodimer made 'as described [22]'; also called soluble αvβ3; αvβ3 protein
Assay: SPR; soluble αvβ3 immobilized on CM5 chip, HBD as analyte, 1 mM Mn2+

T1 sequence (P06756 31-992, chain 1 of 2): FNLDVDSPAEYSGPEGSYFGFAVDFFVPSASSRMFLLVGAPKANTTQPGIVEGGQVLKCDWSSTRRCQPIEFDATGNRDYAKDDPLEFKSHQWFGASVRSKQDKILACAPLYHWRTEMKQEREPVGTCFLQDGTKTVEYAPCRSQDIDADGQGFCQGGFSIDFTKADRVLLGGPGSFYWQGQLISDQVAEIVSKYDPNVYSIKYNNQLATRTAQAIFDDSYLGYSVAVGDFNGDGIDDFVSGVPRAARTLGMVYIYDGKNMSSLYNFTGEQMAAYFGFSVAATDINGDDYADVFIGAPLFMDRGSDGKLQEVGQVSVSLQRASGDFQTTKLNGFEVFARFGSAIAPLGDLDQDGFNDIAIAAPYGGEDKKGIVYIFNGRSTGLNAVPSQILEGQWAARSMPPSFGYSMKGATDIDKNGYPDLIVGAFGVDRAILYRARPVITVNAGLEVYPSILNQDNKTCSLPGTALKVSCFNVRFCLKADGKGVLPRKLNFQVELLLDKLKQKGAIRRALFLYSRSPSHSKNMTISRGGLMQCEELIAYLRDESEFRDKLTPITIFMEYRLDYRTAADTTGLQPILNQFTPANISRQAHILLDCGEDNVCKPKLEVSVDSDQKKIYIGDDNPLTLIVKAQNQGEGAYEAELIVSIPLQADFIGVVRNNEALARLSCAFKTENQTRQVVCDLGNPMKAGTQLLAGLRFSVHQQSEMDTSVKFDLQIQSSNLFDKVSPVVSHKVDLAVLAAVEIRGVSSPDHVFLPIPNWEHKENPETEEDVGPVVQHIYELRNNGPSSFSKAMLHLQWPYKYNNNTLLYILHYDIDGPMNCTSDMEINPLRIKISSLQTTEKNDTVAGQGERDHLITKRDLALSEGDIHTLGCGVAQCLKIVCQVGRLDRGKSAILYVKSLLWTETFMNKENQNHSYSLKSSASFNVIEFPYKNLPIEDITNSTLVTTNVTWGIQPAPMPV
T1 sequence (P05106 27-718, chain 2 of 2): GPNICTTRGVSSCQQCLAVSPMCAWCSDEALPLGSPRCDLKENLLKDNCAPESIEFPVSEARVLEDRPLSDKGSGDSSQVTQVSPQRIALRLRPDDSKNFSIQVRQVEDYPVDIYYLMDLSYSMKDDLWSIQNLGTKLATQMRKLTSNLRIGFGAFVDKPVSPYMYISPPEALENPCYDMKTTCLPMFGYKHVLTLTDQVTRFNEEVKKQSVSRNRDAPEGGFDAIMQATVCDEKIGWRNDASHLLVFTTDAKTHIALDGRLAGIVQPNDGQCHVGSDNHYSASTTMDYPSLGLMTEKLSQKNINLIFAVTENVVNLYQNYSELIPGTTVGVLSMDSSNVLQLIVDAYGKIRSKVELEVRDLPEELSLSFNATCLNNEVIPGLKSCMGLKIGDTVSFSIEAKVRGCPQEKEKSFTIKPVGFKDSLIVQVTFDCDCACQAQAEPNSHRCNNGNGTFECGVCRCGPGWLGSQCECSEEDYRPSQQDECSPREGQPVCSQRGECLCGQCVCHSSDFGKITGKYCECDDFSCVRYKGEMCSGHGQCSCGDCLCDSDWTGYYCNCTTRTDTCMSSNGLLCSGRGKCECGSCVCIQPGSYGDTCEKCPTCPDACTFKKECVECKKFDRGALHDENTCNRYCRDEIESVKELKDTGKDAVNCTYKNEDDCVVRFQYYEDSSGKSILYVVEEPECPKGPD

Kd: 470 nM
B1: VEGF165 heparin-binding domain (HBD, residues 111-165), wild type (ligand)
chain: QALARASGRGGRVARRGAEESGPPHSPSRRGSASRAGPGRASETMNFLLSWVHWS

From US20250092106A1 (University of California, published 2025)
